This is an account of results in patent US20150168399A1 (INSERM INSTITUT NATIONAL DE LA SANTE ET DE LA RECHERCHE …, published 2015).

Data set [1] concerns the target recombinant human endocan (Human active Endocan 1-165, SEQ ID NO: 1) (human) (UniProt Q9NQ30). Description: cell-based or functional assay.
Data set [2] addresses human leukocyte integrin LFA-1 (CD11a/CD18) on Jurkat cells or human NK cells (human) (UniProt P20701). Description: cell-based or functional assay.
Data set [3] concerns the target T1, human leukocyte integrin LFA-1 (CD11a/CD18) on Jurkat cells or human NK cells (human, UniProt P20701 26-1170; P05107 23-769).
T1 construct: whole, on cells; also called CD11a/CD18 integrin; endocan's receptor
Briefly: co-immunoprecipitation from Jurkat lysates with HI111 and mab24. As to the method:
FIG. 4B: Non glycanable endocan is co-immunoprecipitated with anti-LFA-1 mabs. Bound endocan from 20 to 40×10⁶ Jurkat cells were incubated with a mab against endocan (MEC36), mabs against LFA-1 (HI111 and mab24), and anti-CD3 mab as control antibody. Bound endocan is expressed in pg per 10⁶ cells.
Immunoprecipitation of Jurkat lysates containing endocan or non glycanated endocan S137A/E was performed as previously described in Bechard D et al (J Immunol. 2001; 167:3099-3106) using anti-CD11 a mabs HI111 (BD Biosciences), and mab24 (a generous gift of Dr Nancy Hogg from Leukocyte Adhesion Laboratory, Cancer Research UK, London Research Institute, London, UK).

The target of data set [4] is T2, recombinant human endocan (Human active Endocan 1-165, SEQ ID NO: 1).
T2 chain: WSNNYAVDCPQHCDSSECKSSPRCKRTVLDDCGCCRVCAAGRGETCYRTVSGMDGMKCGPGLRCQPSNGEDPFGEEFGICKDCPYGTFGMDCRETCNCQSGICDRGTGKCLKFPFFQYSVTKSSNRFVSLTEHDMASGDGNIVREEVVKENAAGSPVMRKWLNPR

Substitutions are numbered along the chain they refer to. Numbers in names are those of the source.

Sequence of human leukocyte integrin LFA-1 (CD11a/CD18) on Jurkat cells or human NK cells (human) (P20701 26-1170, chain 1 of 2): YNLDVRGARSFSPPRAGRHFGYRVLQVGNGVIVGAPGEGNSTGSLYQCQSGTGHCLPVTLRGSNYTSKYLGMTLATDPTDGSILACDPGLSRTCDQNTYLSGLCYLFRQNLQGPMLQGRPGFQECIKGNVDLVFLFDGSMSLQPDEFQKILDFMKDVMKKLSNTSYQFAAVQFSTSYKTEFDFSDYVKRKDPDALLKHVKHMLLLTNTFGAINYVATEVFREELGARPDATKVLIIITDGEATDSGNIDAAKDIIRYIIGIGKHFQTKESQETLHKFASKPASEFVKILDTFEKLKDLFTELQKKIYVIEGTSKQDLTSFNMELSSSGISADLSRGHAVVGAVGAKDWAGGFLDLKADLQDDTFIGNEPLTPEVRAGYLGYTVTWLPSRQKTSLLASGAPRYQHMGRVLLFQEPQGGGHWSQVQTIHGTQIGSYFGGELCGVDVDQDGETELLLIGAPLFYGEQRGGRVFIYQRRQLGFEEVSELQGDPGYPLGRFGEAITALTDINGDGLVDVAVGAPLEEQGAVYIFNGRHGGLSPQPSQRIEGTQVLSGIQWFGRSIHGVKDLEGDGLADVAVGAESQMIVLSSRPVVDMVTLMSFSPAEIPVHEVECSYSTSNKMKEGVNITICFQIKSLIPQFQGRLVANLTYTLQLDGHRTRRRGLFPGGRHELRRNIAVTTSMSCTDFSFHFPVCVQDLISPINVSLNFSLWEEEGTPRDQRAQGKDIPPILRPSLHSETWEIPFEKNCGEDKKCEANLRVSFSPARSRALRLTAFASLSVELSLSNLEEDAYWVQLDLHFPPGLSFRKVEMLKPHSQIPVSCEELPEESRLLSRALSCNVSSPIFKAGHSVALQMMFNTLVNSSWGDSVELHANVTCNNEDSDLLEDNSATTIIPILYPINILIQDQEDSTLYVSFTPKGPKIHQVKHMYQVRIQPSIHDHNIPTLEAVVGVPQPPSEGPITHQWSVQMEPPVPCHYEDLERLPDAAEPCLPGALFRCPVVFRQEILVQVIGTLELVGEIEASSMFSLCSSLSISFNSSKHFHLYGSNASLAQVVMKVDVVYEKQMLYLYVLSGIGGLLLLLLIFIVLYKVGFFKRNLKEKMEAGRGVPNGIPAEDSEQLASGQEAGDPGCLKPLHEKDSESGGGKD
Sequence of human leukocyte integrin LFA-1 (CD11a/CD18) on Jurkat cells or human NK cells (human) (P05107 23-769, chain 2 of 2, further chain): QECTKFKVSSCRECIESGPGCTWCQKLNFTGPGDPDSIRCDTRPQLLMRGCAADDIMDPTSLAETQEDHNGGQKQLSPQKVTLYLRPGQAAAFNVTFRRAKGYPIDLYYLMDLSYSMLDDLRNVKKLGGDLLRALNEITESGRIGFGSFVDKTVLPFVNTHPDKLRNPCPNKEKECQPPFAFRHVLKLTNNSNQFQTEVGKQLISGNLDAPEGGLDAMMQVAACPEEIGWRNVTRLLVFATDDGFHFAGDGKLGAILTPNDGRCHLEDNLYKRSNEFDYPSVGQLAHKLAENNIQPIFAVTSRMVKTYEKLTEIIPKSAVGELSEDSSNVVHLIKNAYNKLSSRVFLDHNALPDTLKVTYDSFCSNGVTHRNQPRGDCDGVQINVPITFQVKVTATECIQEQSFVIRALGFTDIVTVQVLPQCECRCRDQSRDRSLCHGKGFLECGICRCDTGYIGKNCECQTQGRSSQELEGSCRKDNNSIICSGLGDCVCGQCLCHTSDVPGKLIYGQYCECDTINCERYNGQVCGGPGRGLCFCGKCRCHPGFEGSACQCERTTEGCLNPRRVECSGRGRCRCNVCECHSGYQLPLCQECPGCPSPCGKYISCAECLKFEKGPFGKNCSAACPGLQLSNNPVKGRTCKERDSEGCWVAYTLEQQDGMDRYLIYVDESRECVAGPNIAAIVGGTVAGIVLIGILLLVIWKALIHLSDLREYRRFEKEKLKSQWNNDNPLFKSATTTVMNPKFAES
T1 sequence (P20701 26-1170, chain 1 of 2): as the sequence (P20701 26-1170, chain 1 of 2) above
T1 sequence (P05107 23-769, chain 2 of 2): as the sequence (P05107 23-769, chain 2 of 2, further chain) above

For the molecule “purified proteinase 3 (Sigma) (from UniProt P24158 28-248) (enzyme)”, the loss of the 50 kDa band of endocan in data set [1] worked out at 1 µg/mL.

Molecule “monoclonal anti-human LFA-1 clone HI111 (antibody)” showed a decrease in transendothelial migration of NK cells through TNF-stimulated HUVEC in data set [2] of 82%.

B1: non glycanable endocan mutant (S137A/endocan) (ligand)
chain: T2 chain with S137A
notes: Produced in 293 cells; lacks the glycan chain; also called non glycanated endocan S137A/E
Consider B1, for which, in data set [3], the binding result is listed as “binds”.

B2: purified cathepsin G (Sigma) (protein)
chain: IIGGRESRPHSRPYMAYLQIQSPAGQSRCGGFLVREDFVLTAAHCWGSNINVTLGAHNIQRRENTQQHITARRAIRHPQYNQRTIQNDIMLLQLSRRVRRNRNVNPVALPRAQEGLRPGTLCTVAGWGRVSMRRGTDTLREVQLRVQRDRQCLRIFGSYDPRRQICVGDRRERKAAFKGDSGGPLLCNNVAHGIVSYGKSSGVPPEVFTRVSSFLPWIRTTMRS
In the case of B2, in data set [4], the “minimal concentration of cathepsin G required to cleave completely endocan in 24 h” value was 0.01 µg/mL and the “reduction of the detection of MEP14-bound endocan after two hours with cathepsin G at 37° C.” value was “from 70% to 100%”.

B3: purified elastase (Sigma) (protein)
chain: IVGGRRARPHAWPFMVSLQLRGGHFCGATLIAPNFVMSAAHCVANVNVRAVRVVLGAHNLSRREPTRQVFAVQRIFENGYDPVNLLNDIVILQLNGSATINANVQVAQLPAQGRRLGNGVQCLAMGWGLLGRNRGIASVLQELNVTVVTSLCRRSNVCTLVRGRQAGVCFGDSGSPLVCNGLIHGIASFVRGGCASGLYPDAFAPVAQFVNWIDSIIQ
As to B3, in data set [4], the “minimal concentration of elastase required for near complete degradation of endocan” value is on record as 0.1 µg/mL.
